The labels stand for the following.
B1: H2-Kb / Ed31 (parent complex)
chain 1: GQQVQQSPASLVLQEGENAELQCNFSTSLNSMQWFYQRPGGSLVSLFYNPSGTKHSGRLTSTTVIKERRSSLHISSSQTTDSGTYLCALEGNYAQGLTFGLGTRVSVFP
chain 2: ETAVFQTPNYHVTQVGNEVSFNCKQTLGHDTMYWYKQDSKKLLKIMFSYNNKQLIVNETVPRRFSPQSSDKAHLNLRIKSVEPEDSAVYLCASRSAGEQYFGPGTRLTVL
chain 3: not shown
chain 4: IQKTPQIQVYSRHPPENGKPNILNCYVTQFHPPHIEIQMLKNGKKIPKVEMSDMSFSKDWSFYILAHTEFTPTETDTYACRVKHDSMAEPKTVYWDRDM
chain 5: SIINFEKL
B2: H2-Kb / Ed16-30 (parent complex)
chain 1: GEQVEQRPPHLSVREGDSAVIICTYTDPNSYYFFWYKQEPGAGLQLLMKVFSSTEINEGQGFTVLLNKKDKQLSLNLTAAHPGDSAVYFCAVSEPSSGQKLVFGQGTILKVYL
chain 2: EAAVTQSPRNKVAVTGGKVTLSCNQTNNHNNMYWYRQDTGHGLRLIHYSYGAGSTEKGDIPDGYKASRPSQENFSLILELATPSQTSVYFCAGRDTGQLYFGEGSKLTVL
chain 3: not shown
chain 4: B1 chain 4
chain 5: SIINFEKL

The text below walks through data of PMC11480844 (2024).
Also: test concentration or dose not given here.

The variants in the first assay derive from B1. Put plainly: % of reporter cells activated (NFAT-GFP), raw.
Regarding chain 5 K7G, the ratio to parent was 0.186.
On the same count and under the same terms, with chain 5 K7I the figure was 0.176; with chain 5 K7H, 0.323; with chain 5 K7C, 0.747.
Take chain 5 K7A: the ratio to parent worked out at 0.41.
On to chain 5 K7Q, for which the ratio to parent came out at 0.146.
Same read-out and setting: with chain 5 N4Y the figure was 0.242; with chain 5 N4W, 0.42; with chain 5 N4M, 0.207.
Same read-out and setting: with chain 5 N4D the figure was 0.00288; with chain 5 N4H, 0.0784; with chain 5 I2P, 0.972.
Same read-out and setting: with chain 5 I2G the figure was 1.11; with chain 5 I2K, 0.818; with chain 5 I2Y, 0.658.
As to chain 5 I2A, the ratio to parent was found to be 1.18.
Regarding chain 5 I2S, the ratio to parent is 1.12.
Still for that read-out and setting: with chain 5 I2H the figure was 0.832; with chain 5 I2N, 0.832.
Consider chain 5 I2D, for which the ratio to parent was determined as 0.962.
Turning to chain 5 I2L, the ratio to parent was determined as 1.12.
Consider chain 5 I3Y, for which the ratio to parent came to 0.0382.
Regarding chain 5 I3C, the ratio to parent was 0.555.
Still for that read-out and setting: with chain 5 I3N the figure was 0.225.
On the same count and under the same terms, with chain 5 I3K the figure was 0.735.
Still for that read-out and setting: with chain 5 I3S the figure was 0.38.
chain 5 I3F: the ratio to parent came to 0.0484.
chain 5 F5T: the ratio to parent is 0.956.
On the same count and under the same terms, with chain 5 F5P the figure was 0.261; with chain 5 F5C, 0.68.
For the variant chain 5 F5K, the ratio to parent is 0.509.
As for chain 5 F5E, the ratio to parent was determined as 0.407.
As to chain 5 F5N, the ratio to parent was determined as 0.525.
Regarding chain 5 F5S, the ratio to parent came to 0.753.
Regarding chain 5 S1D, the ratio to parent is 0.504.
Regarding chain 5 S1Y, the ratio to parent is 0.934.
With chain 5 S1E, the ratio to parent was 0.561.
In the case of chain 5 S1I, the ratio to parent was determined as 0.676.
Consider chain 5 S1T, for which the ratio to parent was determined as 0.99.
For the variant chain 5 S1V, the ratio to parent is 0.551.
Turning to chain 5 S1H, the ratio to parent is 1.04.
For chain 5 S1G, the ratio to parent came to 1.04.
On the same count and under the same terms, with chain 5 E6Q the figure was 0.111; with chain 5 E6L, 0.0037; with chain 5 E6K, 0.777.
On the same count and under the same terms, with chain 5 E6I the figure was 0.000832.
Still for that read-out and setting: with chain 5 E6C the figure was 0.00242.
chain 5 L8M: the ratio to parent was 0.945.
Consider chain 5 L8D, for which the ratio to parent came to 0.549.
On the same count and under the same terms, with chain 5 L8G the figure was 0.711.
In the case of chain 5 L8K, the ratio to parent was determined as 0.854.

Variants of B2 are the subject of a further assay. Put plainly: % of reporter cells activated (NFAT-GFP), raw.
Turning to chain 5 K7R, the ratio to parent came out at 1.17.
The same measure, in the same setting: with chain 5 K7S the figure was 0.842; with chain 5 K7C, 0.563.
Consider chain 5 K7Y, for which the ratio to parent stood at 0.265.
Still for that read-out and setting: with chain 5 K7M the figure was 0.57; with chain 5 K7L, 0.401.
Same read-out and setting: with chain 5 K7Q the figure was 0.297.
Still for that read-out and setting: with chain 5 K7H the figure was 0.478.
With chain 5 K7A, the ratio to parent was determined as 0.499.
As to chain 5 K7P, the ratio to parent came out at 0.796.
Still for that read-out and setting: with chain 5 K7F the figure was 0.106; with chain 5 K7N, 0.305.
As for chain 5 I2L, the ratio to parent worked out at 1.33.
The same measure, in the same setting: with chain 5 I2V the figure was 1.33; with chain 5 I2C, 1.12.
As for chain 5 I2M, the ratio to parent was 1.31.
Still for that read-out and setting: with chain 5 I2G the figure was 1.25.
Same read-out and setting: with chain 5 I2H the figure was 0.72.
Turning to chain 5 I2Q, the ratio to parent was determined as 0.726.
Still for that read-out and setting: with chain 5 I2D the figure was 1.31.
With chain 5 I2T, the ratio to parent came to 1.18.
On the same count and under the same terms, with chain 5 I2W the figure was 0.866.
The same measure, in the same setting: with chain 5 I2F the figure was 1.08.
In the case of chain 5 I2R, the ratio to parent amounted to 0.968.
Regarding chain 5 E6K, the ratio to parent was 0.503.
Same read-out and setting: with chain 5 E6F the figure was 0.35; with chain 5 E6R, 0.363; with chain 5 E6Q, 0.745.
The same measure, in the same setting: with chain 5 E6G the figure was 0.543; with chain 5 E6T, 0.545.
With chain 5 E6V, the ratio to parent turned out to be 0.0227.
Still for that read-out and setting: with chain 5 E6P the figure was 0.508; with chain 5 E6N, 0.588.
The same measure, in the same setting: with chain 5 E6Y the figure was 0.308; with chain 5 E6C, 0.197.
Turning to chain 5 E6H, the ratio to parent is 0.488.
For chain 5 E6D, the ratio to parent worked out at 1.28.
The same measure, in the same setting: with chain 5 E6W the figure was 0.422; with chain 5 L8E, 0.823.
As for chain 5 L8R, the ratio to parent turned out to be 1.04.
For chain 5 L8I, the ratio to parent was found to be 1.19.
On the same count and under the same terms, with chain 5 L8V the figure was 1.
The same measure, in the same setting: with chain 5 L8F the figure was 1.12; with chain 5 L8T, 1.09.
Turning to chain 5 L8D, the ratio to parent amounted to 0.715.
Consider chain 5 L8W, for which the ratio to parent worked out at 0.929.
Same read-out and setting: with chain 5 L8P the figure was 0.836.
The same measure, in the same setting: with chain 5 L8C the figure was 0.731; with chain 5 L8Y, 1.13.
For the variant chain 5 F5W, the ratio to parent worked out at 1.03.
chain 5 F5A: the ratio to parent came out at 1.21.
With chain 5 F5K, the ratio to parent was found to be 1.04.
Still for that read-out and setting: with chain 5 F5V the figure was 1.25; with chain 5 F5Y, 1.14.
Take chain 5 F5Q: the ratio to parent is 1.25.
Same read-out and setting: with chain 5 F5S the figure was 1.19; with chain 5 F5R, 1.19; with chain 5 F5D, 0.85.
For chain 5 F5T, the ratio to parent was determined as 1.23.
Same read-out and setting: with chain 5 F5N the figure was 0.969.
Same read-out and setting: with chain 5 F5H the figure was 1.21; with chain 5 F5G, 0.976; with chain 5 F5I, 1.11.
With chain 5 F5M, the ratio to parent came to 1.28.
For chain 5 F5P, the ratio to parent was found to be 0.769.
As for chain 5 N4E, the ratio to parent was 0.00872.
Turning to chain 5 N4F, the ratio to parent was 0.00803.
With chain 5 N4Y, the ratio to parent was 0.0322.
chain 5 N4Q: the ratio to parent amounted to 0.0901.
Same read-out and setting: with chain 5 N4D the figure was 0.9; with chain 5 N4I, 0.0453; with chain 5 N4P, 0.121.
Still for that read-out and setting: with chain 5 N4G the figure was 0.0285.
For chain 5 N4V, the ratio to parent was found to be 0.0105.
Same read-out and setting: with chain 5 N4L the figure was 0.507.
On the same count and under the same terms, with chain 5 N4W the figure was 0.0129; with chain 5 S1R, 0.184; with chain 5 S1V, 0.362.
For the variant chain 5 S1N, the ratio to parent amounted to 0.522.
Same read-out and setting: with chain 5 S1W the figure was 0.128.
Same read-out and setting: with chain 5 S1H the figure was 0.259; with chain 5 S1G, 0.485; with chain 5 S1I, 0.323.
Regarding chain 5 S1D, the ratio to parent was 0.337.
Regarding chain 5 S1K, the ratio to parent is 0.144.
On to chain 5 S1T, for which the ratio to parent was 0.386.
On to chain 5 I3T, for which the ratio to parent was determined as 0.613.
Regarding chain 5 I3S, the ratio to parent was 0.393.
The same measure, in the same setting: with chain 5 I3G the figure was 0.137.
Consider chain 5 I3L, for which the ratio to parent amounted to 1.03.
On to chain 5 I3D, for which the ratio to parent was determined as 0.562.
Regarding chain 5 I3Y, the ratio to parent was 0.607.
As for chain 5 I3R, the ratio to parent came out at 0.104.
For the variant chain 5 I3A, the ratio to parent came out at 0.413.
Same read-out and setting: with chain 5 I3F the figure was 0.69; with chain 5 I3E, 0.45; with chain 5 I3C, 0.642.
As to chain 5 I3W, the ratio to parent was determined as 0.537.
As to chain 5 I3Q, the ratio to parent turned out to be 0.322.
